The results in this text go back to US20170044259A1 (published 2017).

The target of assay [1] is T1, human PD-1-Fc (R and D systems, Minneapolis, Minn.) (human, UniProt Q15116 25-167). Description: inhibition ELISA; hPDL-2 Fc blockade. (In an ELISA, binding on a coated surface is turned into a signal by an enzyme label.)
Assay [2] deals with T1, human PD-1-Fc (R and D systems, …). As to the kind of experiment: inhibition ELISA; hPDL-1 Fc blockade.
The target of assay [3] is human PD-1-His (R & D systems, Minneapolis, Minn.) (human, UniProt Q15116 25-167). Description: BLI. On the technique in general: Biolayer interferometry detects binding as a change in optical thickness at a sensor tip.
Chain of human PD-1-His (R & D systems, Minneapolis, Minn.) (Q15116 25-167): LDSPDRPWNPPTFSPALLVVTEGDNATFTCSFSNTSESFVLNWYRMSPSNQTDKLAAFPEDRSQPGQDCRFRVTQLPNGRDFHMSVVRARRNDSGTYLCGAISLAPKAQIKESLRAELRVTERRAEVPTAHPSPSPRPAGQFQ
Assay [4] addresses T1, human PD-1-Fc (R and D systems, …). Description: inhibition ELISA; hPDL-1 Fc blockade. The source holds these as a separate data set.
Assay [5] shares this target. Description: ELISA; lower right panel.
The target is the same in assay [6]. Description: ELISA; lower left panel.
The target is the same in assay [7]. As to the kind of experiment: ELISA; upper right panel.
For assay [8] the target is unchanged. As to the kind of experiment: ELISA; upper left panel.
For assay [9], the target named is T2, mouse PD-1 expressed on HEK293 cells (mouse, UniProt Q02242 25-288).
T2 chain: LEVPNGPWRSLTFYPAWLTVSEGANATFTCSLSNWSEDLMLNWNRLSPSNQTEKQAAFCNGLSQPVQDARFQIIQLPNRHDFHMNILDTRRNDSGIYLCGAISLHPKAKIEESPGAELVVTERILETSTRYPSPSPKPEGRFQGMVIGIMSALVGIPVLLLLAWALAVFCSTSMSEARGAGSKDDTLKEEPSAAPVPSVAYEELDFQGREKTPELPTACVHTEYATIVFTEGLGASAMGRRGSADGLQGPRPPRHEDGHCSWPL
As to the kind of experiment: flow cytometry blocking; blocking of biotin-mPD-L1. (A flow cytometer gives signals particle by particle.)

The target in assay [10] is T2, mouse PD-1 expressed on HEK293 cells. Description: flow cytometry cell binding.
The target is the same in assay [11]. As to the kind of experiment: flow cytometry blocking; blocking of biotin-mPD-L2.

T1 sequence (Q15116 25-167): as the sequence (Q15116 25-167) above

B1: A1.5 (antibody)
heavy: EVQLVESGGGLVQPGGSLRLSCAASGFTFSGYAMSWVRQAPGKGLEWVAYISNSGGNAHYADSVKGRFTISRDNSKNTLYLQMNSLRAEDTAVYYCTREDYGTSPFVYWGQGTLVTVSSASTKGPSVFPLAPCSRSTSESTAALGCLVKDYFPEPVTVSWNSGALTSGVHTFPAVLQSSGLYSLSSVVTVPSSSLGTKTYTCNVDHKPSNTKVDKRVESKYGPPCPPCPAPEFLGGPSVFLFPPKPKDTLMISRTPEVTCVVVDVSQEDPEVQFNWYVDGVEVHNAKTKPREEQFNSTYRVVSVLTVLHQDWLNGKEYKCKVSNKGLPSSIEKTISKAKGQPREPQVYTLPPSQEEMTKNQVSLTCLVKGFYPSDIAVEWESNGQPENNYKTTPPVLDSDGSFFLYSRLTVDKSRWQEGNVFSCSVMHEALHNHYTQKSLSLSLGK
light: DIQLTQSPSSLSASVGDRVTITCRASESVDAYGISFMNWFQQKPGKAPKLLIYAASNQGSGVPSRFSGSGSGTDFTLTISSMQPEDFATYYCQQSKDVPWTFGQGTKLEIKRTVAAPSVFIFPPSDEQLKSGTASVVCLLNNFYPREAKVQWKVDNALQSGNSQESVTEQDSKDSTYSLSSTLTLSKADYEKHKVYACEVTHQGLSSPVTKSFNRGEC
Broadly, the IC50 is the concentration that inhibits the measured activity by half. A lower IC50 goes with greater potency. For orientation: Kd means the constant that tells how readily two partners part at equilibrium. A higher Kd goes with a looser complex. Consider B1, for which the IC50 was determined as 2.94 nM in assay [1], 4.25 nM in assay [2] and 1.4 nM in assay [4]. For the same molecule, the Kd in [3] stood at 1.48 nM; in assay [5], 0.176 nM; in assay [6], 0.16 nM; in assay [7] it was 0.18 nM; in assay [8], 0.162 nM.

B2: J43v2 mIgG2a (antibody, V domains shown)
VH: EVRLLESGGGLVKPEGSLKLSCVASGFTFSDYFMSWVRQAPGKGLEWVAHIYTKSYNYATYYSGSVKGRFTISRDDSRSMVYLQMNNLRTEDTATYYCTRDGSGYPSLDFWGQGTQVTVSS
VL: YELTQPPSASVNVGETVKITCSGDQLPKYFADWFHQRSDQTILQVIYDDNKRPSGIPERISGSSSGTTATLTIRDVRAEDEGDYYCFSGYVDSDSKLYVFGSGTQLTVLG
Broadly, the EC50 is the concentration needed to bring the measured effect to its halfway point. Read a low EC50 as higher potency in that assay. For B2, the results for the EC50 in assay [9], in assay [10] and in [11] were 6.06 nM, 4.31 nM and 5.9 nM, respectively.
